Test results published in US20190119389A1 (POTENZA THERAPEUTICS, published 2019).
Residue numbers refer to the chain shown, from its start.

T1: Cyno NRP-1 His (cynomolgus monkey, UniProt O14786 22-856 (human entry), limits assumed)
T1 construct: Recombinant monomeric protein; also called cynomolgus monkey NRP-1-His; cNRP-1; not shown: His tag
T1 chain: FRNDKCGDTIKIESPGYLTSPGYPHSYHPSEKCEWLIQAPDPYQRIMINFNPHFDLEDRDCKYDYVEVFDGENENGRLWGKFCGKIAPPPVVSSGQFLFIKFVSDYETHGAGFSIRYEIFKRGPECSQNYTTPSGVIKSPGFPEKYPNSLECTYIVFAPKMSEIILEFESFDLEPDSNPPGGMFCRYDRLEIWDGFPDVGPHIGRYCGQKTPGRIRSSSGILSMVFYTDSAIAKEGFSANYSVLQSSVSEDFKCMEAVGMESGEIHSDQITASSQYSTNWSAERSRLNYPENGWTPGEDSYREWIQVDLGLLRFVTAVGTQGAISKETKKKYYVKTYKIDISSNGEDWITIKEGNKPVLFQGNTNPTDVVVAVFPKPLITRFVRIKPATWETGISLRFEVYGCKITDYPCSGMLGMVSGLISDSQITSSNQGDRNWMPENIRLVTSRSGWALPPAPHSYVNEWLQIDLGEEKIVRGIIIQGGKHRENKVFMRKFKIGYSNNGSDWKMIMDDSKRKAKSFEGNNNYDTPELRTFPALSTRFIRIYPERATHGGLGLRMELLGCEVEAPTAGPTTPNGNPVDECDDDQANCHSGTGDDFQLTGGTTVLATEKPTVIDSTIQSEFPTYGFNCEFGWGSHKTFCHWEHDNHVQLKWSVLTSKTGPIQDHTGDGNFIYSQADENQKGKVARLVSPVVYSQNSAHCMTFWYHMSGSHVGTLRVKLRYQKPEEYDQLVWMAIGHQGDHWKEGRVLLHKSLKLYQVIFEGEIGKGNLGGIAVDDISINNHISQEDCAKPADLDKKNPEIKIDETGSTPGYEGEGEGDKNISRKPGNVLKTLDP

B1: MAB5 (antibody, V domains shown)
VH: QVQLVQSGAEVKKPGASVKVSCKASGYTFTSYYMHWVRQAPGQGLEWMGIINPQGGDTSYAQKFQGRVTMTRDTSTSTVYMELSSLRSEDTAVYYCARDRGMYYASGFGPWGQGTLVTVSS
VL: EIVMTQSPGTLSLSPGERATLSCRASQSVSSSYLAWYQQKPGQAPRLLIYGASNRATGIPDRFSGSGSGTDFTLTISRLEPEDFAVYYCQQLSSFPITFGGGTKVEIK
B2: MAB1 (antibody, V domains shown)
VH: QVQLVQSGAGVKKPGASVKVSCKASGYTFRSYYMLWVRQAPGQGLEWMGIIDPSDGSTSYAQKFQGRVTMTRDTPTSTVYMELSSLRSEDTAVYYCARGARRITGYGMDVWGQGTTVTVSS
VL: DIQMTQSPSSVSASVGDRVTITCRASQGISSWLAWYQQKPGKAPKLLIYAASNLQSGVPSRFSGSGSGTDFTLTISSLQPEDFATYYCQQASVFPFTFGGGTKVEIK
B3: MAB13 (antibody, V domains shown)
VH: QVQLQQWGAGLLKPSETLSLTCAVYGGSFRGYYWEWIRQPPGKGLEWIGEISHSGSTNYNPSLKSRVTISVDTSKNQFSLKLSSVTAADTAVYYCARARPYREPYGMDVWGQGTTVTVSS
VL: B2 VL with M4L, G28D, N53S, A91E, S92L, V93A, F96R
B4: MAB3 (antibody, V domains shown)
VH: QAQLVQSGAEVKKPGASVKVSCKASGYTFSRYYMHWVRQAPGQGLEWMGIINPLGGSTLYAQKFQGRVTMTRDTSTSTVYMELSSLRSEDTAVYYCARDLGYYGSGMHAWGQGTLVTVSS
VL: B2 VL with S31R, N53S, S92N, V93L, F94L
B5: MAB2 (antibody, V domains shown)
VH: B2 VH with G10E, T74A, P75S, T118I
VL: B2 VL
B6: MAB14 (antibody, V domains shown)
VH: B3 VH with I37S, S84P
VL: B2 VL with M4L, G28D, N53S, A91E, S92L, V93A, F96R
B7: MAB4 (antibody, V domains shown)
VH: B4 VH with A2V, A109V
VL: B2 VL with S31R, N53S, S92N, V93L, F94L
B8: MAB5 Fab (Fab, V domains shown)
VH: B1 VH
VL: B1 VL
B9: MAB6 Fab (Fab, V domains shown)
VH: B1 VH with E10K, A40V, G109N
VL: B1 VL
B10: MAB15 Fab (Fab, V domains shown)
VH: QVQLQQWGAGLLKPSETLSLTCAVYGGSFVKYYWSWIRQPPGKGLEWIGDIWHSGMTNYNPSLKSRVTISVDTSKNQFSLKLSSVTAADTAVYYCARGPGYDSSGYSRRFDPWGQGTLVTVSS
VL: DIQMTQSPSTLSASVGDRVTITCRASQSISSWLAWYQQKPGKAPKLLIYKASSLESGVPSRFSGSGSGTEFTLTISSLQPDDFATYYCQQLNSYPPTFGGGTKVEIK
B11: MAB8 Fab (Fab, V domains shown)
VH: EVQLLESGGGLVQPGGSLRLSCAASGFTFASYAMVWVRQAPGKGLEWVSIISGSGGSTYYADSVKGRFTISRDNSKNTLYLQMNSLRAEDTAVYYCAKDPGYDSSRYYYSNYGMDVWGQGTTVTVSS
VL: DIQMTQSPSSLSASVGDRVTITCRASQSISSYLNWYQQKPGKAPKLLIYGASSLQSGVPSRFSGSGSGTDFTLTISSLQPEDFATYYCQQTYSLYTFGGGTKVEIK
B12: MAB10 Fab (Fab, V domains shown)
VH: B11 VH with A30S, Y32V, I50A, S57A
VL: B11 VL
B13: MAB11 Fab (Fab, V domains shown)
VH: B11 VH with A30S, Y32V, I50A, S57A, K65E, N84S
VL: B11 VL
B14: MAB9 Fab (Fab, V domains shown)
VH: B11 VH with A30K, S57A
VL: B11 VL
B15: MAB12 Fab (Fab, V domains shown)
VH: B11 VH with A30S, Y32V, I50A, S57A, K65E
VL: B11 VL
B16: MAB1 Fab (Fab, V domains shown)
VH: B2 VH
VL: B2 VL
B17: MAB13 Fab (Fab, V domains shown)
VH: B3 VH
VL: B2 VL with M4L, G28D, N53S, A91E, S92L, V93A, F96R
B18: MAB3 Fab (Fab, V domains shown)
VH: B4 VH
VL: B2 VL with S31R, N53S, S92N, V93L, F94L
B19: MAB14 Fab (Fab, V domains shown)
VH: B3 VH with I37S, S84P
VL: B2 VL with M4L, G28D, N53S, A91E, S92L, V93A, F96R
B20: MAB2 Fab (Fab, V domains shown)
VH: B2 VH with G10E, T74A, P75S, T118I
VL: B2 VL
B21: MAB4 Fab (Fab, V domains shown)
VH: B4 VH with A2V, A109V
VL: B2 VL with S31R, N53S, S92N, V93L, F94L
B22: MAB15 (antibody, V domains shown)
VH: B10 VH
VL: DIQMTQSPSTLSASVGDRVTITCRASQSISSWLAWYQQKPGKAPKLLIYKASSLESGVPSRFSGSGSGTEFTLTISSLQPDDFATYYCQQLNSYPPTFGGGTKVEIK

molecular target: T2, recombinant human NRP-1 (human, UniProt O14786 22-856, limits assumed); assay: blocking ELISA: SEMA3A coated, biotinylated human NRP-1 preincubated with IgG1 antibody; competitor SEMA3A
T2 construct: also called biotinylated human NRP-1
T2 sequence (O14786 22-856 V179A limits assumed): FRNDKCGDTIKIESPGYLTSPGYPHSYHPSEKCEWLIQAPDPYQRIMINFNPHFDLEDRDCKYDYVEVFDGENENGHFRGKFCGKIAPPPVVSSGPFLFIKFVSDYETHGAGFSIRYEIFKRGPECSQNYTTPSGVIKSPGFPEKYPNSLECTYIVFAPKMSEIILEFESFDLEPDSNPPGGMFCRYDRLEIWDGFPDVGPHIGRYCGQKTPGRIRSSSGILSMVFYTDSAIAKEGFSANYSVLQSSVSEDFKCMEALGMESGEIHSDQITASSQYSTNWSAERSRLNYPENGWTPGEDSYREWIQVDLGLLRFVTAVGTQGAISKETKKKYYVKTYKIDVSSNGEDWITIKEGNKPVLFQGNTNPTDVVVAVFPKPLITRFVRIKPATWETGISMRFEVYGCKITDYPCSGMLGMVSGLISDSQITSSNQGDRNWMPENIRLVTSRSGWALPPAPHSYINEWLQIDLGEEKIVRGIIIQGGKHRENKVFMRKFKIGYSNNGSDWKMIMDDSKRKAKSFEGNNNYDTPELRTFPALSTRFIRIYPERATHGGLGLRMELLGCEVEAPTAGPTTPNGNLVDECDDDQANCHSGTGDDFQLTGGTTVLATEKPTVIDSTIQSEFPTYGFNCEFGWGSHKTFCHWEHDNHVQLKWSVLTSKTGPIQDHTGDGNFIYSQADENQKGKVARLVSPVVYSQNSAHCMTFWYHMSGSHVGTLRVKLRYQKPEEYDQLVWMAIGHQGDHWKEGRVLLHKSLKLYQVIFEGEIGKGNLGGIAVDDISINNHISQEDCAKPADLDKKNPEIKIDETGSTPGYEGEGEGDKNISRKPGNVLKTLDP

Row | IC50 [nM] | Binder
1 | 5.9 | B1
2 | 2.9 | B2
3 | 3.4 | B3
4 | 0.6 | B4
5 | 3.1 | B5
6 | 3.1 | B6
7 | 3.9 | B7

molecular target: T3, Human NRP-1 His (human, UniProt O14786 22-856); assay: MSD-SET solution equilibrium titration, Fab
T3 construct: Recombinant monomeric protein; Biotinylated in the MSD-SET assay; also called hNRP-1; not shown: His tag

Row | Kd [nM] | Binder
8 | 0.28 | B8
9 | 0.45 | B9
10 | 0.18 | B10
11 | 0.096 | B11
12 | 0.064 | B12
13 | 0.021 | B13
14 | 0.019 | B14
15 | 0.026 | B15
16 | 0.32 | B16
17 | 0.54 | B17
18 | 0.06 | B18
19 | 0.28 | B19
20 | 0.23 | B20
21 | 0.046 | B21

Molecular target: T1, Cyno NRP-1 His
Assay: BLI ForteBio, IgG1 N297A on AHQ sensor, 100 nM monomeric antigen, 1:1 fit

Row | Kd [nM] | Binder
22 | 4.09 | B1
23 | 9.2 | B22
24 | 2.16 | B2
25 | 1.58 | B3
26 | 1.19 | B4
27 | 2.43 | B5
28 | 1.1 | B6
29 | 0.925 | B7

molecular target: T3, Human NRP-1 His; assay: as above

Row | Kd [nM] | Binder
30 | 3.23 | B1
31 | 0.851 | B22
32 | 1.87 | B2
33 | 1.41 | B3
34 | 1.08 | B4
35 | 1.86 | B5
36 | 1.12 | B6
37 | 0.851 | B7

molecular target: T4, Mouse NRP-1 His (mouse, UniProt P97333 22-856); assay: as above
T4 construct: Recombinant monomeric protein; also called mNRP-1; not shown: His tag

Row | Kd [nM] | Binder
38 | 5.06 | B1
39 | 54.1 | B22
40 | 2.12 | B2
41 | 7.42 | B3
42 | 0.99 | B4
43 | 1.94 | B5
44 | 5 | B6
45 | 0.746 | B7
